From paper PMC1831719, “Elucidating the Ticking of an In Vitro Circadian Clockwork” (PLoS Biology, 2007)

Target: the molecule itself
Experiment: negative-stain electron microscopy with image classification; aliquots every 3 h from the oscillating KaiA/KaiB/KaiC mixture (50 ng/ul KaiA, 50 ng/ul KaiB, 200 ng/ul KaiC, 1 mM ATP, 30 °C); 0.75% uranyl formate; particles sorted into four meta classes at seven phases

B1: KaiC (natural protein, S. elongatus, UniProt Q79PF4 1-519, looked up)
chain: MTSAEMTSPNNNSEHQAIAKMRTMIEGFDDISHGGLPIGRSTLVSGTSGTGKTLFSIQFLYNGIIEFDEPGVFVTFEETPQDIIKNARSFGWDLAKLVDEGKLFILDASPDPEGQEVVGGFDLSALIERINYAIQKYRARRVSIDSVTSVFQQYDASSVVRRELFRLVARLKQIGATTVMTTERIEEYGPIARYGVEEFVSDNVVILRNVLEGERRRRTLEILKLRGTSHMKGEYPFTITDHGINIFPLGAMRLTQRSSNVRVSSGVVRLDEMCGGGFFKDSIILATGATGTGKTLLVSRFVENACANKERAILFAYEESRAQLLRNAYSWGMDFEEMERQNLLKIVCAYPESAGLEDHLQIIKSEINDFKPARIAIDSLSALARGVSNNAFRQFVIGVTGYAKQEEITGLFTNTSDQFMGAHSITDSHISTITDTIILLQYVEIRGEMSRAINVFKMRGSWHDKAIREFMISDKGPDIKDSFRNFERIISGSPTRITVDEKSELSRIVRGVQEKGPES
notes: KaiC, circadian clock protein of Synechococcus elongatus; In the cycling reaction KaiC oscillates between hypo- and hyperphosphorylated forms (sites T426, S431, T432); also called KaiC hexamer; P-KaiC; source: E. coli, purified
  stoichiometry N: 6
